Experimental findings from publication PMC7718258 are described below.

Series [1] concerns the target T1, mjCgi121;mjBud32;mjKae1;pfPcc1 (Methanocaldococcus jannaschii;Methanocaldococcus jannaschii;Methanocaldococcus jannaschii;Pyrococcus furiosus) (UniProt Q57646+Q58530+Q58530+Q9V1Z9).
T1 sequence 1: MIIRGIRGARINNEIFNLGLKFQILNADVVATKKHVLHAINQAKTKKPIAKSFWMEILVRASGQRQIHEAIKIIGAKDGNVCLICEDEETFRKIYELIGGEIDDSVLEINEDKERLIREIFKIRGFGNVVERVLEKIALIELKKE
T1 sequence 2: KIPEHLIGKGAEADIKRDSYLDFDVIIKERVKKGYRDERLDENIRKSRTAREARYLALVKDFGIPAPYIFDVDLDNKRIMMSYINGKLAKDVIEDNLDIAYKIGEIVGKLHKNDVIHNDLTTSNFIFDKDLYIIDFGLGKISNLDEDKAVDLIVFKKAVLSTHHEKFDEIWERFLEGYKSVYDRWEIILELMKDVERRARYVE
T1 sequence 3: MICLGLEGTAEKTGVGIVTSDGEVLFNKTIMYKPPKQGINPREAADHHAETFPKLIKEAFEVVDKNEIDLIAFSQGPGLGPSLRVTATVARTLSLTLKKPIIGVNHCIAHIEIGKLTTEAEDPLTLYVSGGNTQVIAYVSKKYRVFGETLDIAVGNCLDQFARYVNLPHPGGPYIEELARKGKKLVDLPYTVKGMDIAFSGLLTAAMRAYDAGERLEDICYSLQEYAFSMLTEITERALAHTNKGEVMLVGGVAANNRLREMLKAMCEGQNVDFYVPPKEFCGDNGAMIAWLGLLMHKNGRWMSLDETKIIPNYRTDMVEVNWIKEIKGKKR
T1 sequence 4: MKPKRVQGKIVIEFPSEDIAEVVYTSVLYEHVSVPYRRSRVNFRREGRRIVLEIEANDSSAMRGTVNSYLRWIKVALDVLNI
Description: fluorescence polarization. To be noted: 20 mM HEPES pH 7.5, 100 mM NaCl, 2 mM DTT; filter binding 50 nM 32P-tRNA, 1 h, room temperature; FP 50 nM 647-CCA; NMR 25 C with 10% D2O. (Polarisation of emitted light reports the rotation of a fluorescent probe.)

For series [2], the target named is T2, mjCgi121;mjBud32 (Methanocaldococcus jannaschii;Methanocaldococcus jannaschii) (UniProt Q57646+Q58530).
T2 sequence 1: T1 sequence 1
T2 sequence 2: T1 sequence 2
Description: competition. Particulars: displacement of 647-CCA (FP), 0.8 uM protein; 20 mM HEPES pH 7.5, 100 mM NaCl, 2 mM DTT; filter binding 50 nM 32P-tRNA, 1 h, room temperature; FP 50 nM 647-CCA; NMR 25 C with 10% D2O.

Series [3] addresses mjCgi121;mjBud32 E152R (Methanocaldococcus jannaschii;Methanocaldococcus jannaschii) (UniProt Q57646). Description: competition. To be noted: displacement of 647-CCA (FP), 0.8 uM protein; 20 mM HEPES pH 7.5, 100 mM NaCl, 2 mM DTT; filter binding 50 nM 32P-tRNA, 1 h, room temperature; FP 50 nM 647-CCA; NMR 25 C with 10% D2O.
The target in series [4] is mjCgi121;mjBud32 R60E (Methanocaldococcus jannaschii;Methanocaldococcus jannaschii) (UniProt Q57646). Description: competition. Particulars: displacement of 647-CCA (FP), 0.8 uM protein; 20 mM HEPES pH 7.5, 100 mM NaCl, 2 mM DTT; filter binding 50 nM 32P-tRNA, 1 h, room temperature; FP 50 nM 647-CCA; NMR 25 C with 10% D2O.
Series [5] deals with T3, mjCgi121 (Methanocaldococcus jannaschii) (UniProt Q57646).
T3 sequence: T1 sequence 1
Nature of the series: competition. Particulars: displacement of 647-CCA (FP); 20 mM HEPES pH 7.5, 100 mM NaCl, 2 mM DTT; filter binding 50 nM 32P-tRNA, 1 h, room temperature; FP 50 nM 647-CCA; NMR 25 C with 10% D2O.

In turn, CCGCCA [647-CCA] returned a Kd in series [1] of 263 nM.

mjtRNALysUUU: the IC50 in series [2] worked out at 1200 nM; in series [3] it was 600 nM; in series [4], 7600 nM.

As for mjtRNAValCAC, the binding signal (fold less efficient than mjtRNALys) in series [5] came out at 7.3.

As usually defined, the Kd is the free concentration of one partner at which half of the binding sites on the other are occupied at equilibrium, for simple one-to-one binding. Usually IC50 stands for the concentration at which inhibition is half-maximal.
